Entries after “also recorded” stand apart in the source; their conditions may differ. Where a name gives a salt, the structure may show the parent alone. Where a SMILES comes first, the peptide text is derived from it. [ ]: non-standard residue; d: D form. The star is where a group is joined. Dolaproine = CO[C@@H]([C@@H]1CCCN1)[C@@H](C)C(=O)O; Dil = CC[C@H](C)[C@H](NC)[C@@H](CC(=O)O)OC; X1 = C[C@@H](N*)[C@@H](O)c1ccccc1; NMeV = CN[C@H](C(=O)O)C(C)C
Assays:
[1] = biological target: T1, GPNMB (Homo sapiens, UniProt Q14956); assay: Binning of antibodies (Luminex competitive binding)
T1 construct: made in house; host or cells: HEK 293
T1 sequence (Q14956 23-492): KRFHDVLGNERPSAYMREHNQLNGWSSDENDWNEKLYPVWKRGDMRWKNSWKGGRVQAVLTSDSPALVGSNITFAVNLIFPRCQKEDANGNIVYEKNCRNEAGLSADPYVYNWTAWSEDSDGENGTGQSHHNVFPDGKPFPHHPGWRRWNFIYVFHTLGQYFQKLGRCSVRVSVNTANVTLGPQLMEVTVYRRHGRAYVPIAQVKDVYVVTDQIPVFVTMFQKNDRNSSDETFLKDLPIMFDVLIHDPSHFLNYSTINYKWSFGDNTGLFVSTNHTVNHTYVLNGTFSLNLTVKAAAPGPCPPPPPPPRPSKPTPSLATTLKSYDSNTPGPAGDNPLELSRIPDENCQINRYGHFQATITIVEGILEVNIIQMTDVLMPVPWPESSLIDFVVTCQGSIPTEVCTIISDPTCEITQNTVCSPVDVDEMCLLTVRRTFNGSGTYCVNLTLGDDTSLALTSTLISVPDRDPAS
Description: Certain antibodies, described herein were binned in accordance with the protocol described in U.S. Patent Application Publication No. 20030157730. MxhIgG conjugated beads are prepared for coupling to primary antibody. The volume of supernatant needed is calculated using the following formula: (n+10)×50 μL (where n=total number of samples on plate). Where the concentration is known, 0.5 μg/mL is used. Bead stock is gently vortexed, then diluted in supernatant to a concentration of 2500 of each bead per well or 0.5×10^5/mL and incubated on a shaker in the dark at RT overnight, or 2 hours if at a known concentration of […]. Following aspiration, 50 μL of each bead is added to each well of filter plate, then washed once by adding 100 μL/well wash buffer and aspirating. Antigen and controls are added to filter plate 50 μL/well then covered and allowed to incubate in the dark for 1 hour on shaker. Following a wash step, a secondary unknown antibody is added at 50 μL/well using the same dilution (or concentration if known) as is used for the primary antibody. The plates are then incubated in the dark for 2 hours at RT on shaker followed by a wash step. Next, 50 μL/well biotinylated mxhIgG diluted 1:500 is added and allowed to incubate in the dark for 1 hour on shaker at RT. Following a wash step, 50 μL/well Streptavidin-PE is added at 1:1000 and allowed to incubate in the dark for 15 minutes on shaker at RT.

[2] = test system: UACC-62; assay: Anti GPNMB antibody mediated indirect cell killing (saporin secondary antibody-toxin conjugate, colony count); type: cell-based, human; settings: 5-FU at 600 uM, positive reagent control
Description: UACC-62, a GPNMB antigen expressing cell line, and TK10, a non-expressing cell line were plated onto flat bottom 96-well tissue culture plates (Becton Dickinson, Franklin Lakes, N.J., USA) at a density of 3000 cells per well. Once the cells reached ˜25% confluency, 100 ng/well of secondary antibody-toxin conjugate (goat anti-human IgG-saporin; Advanced Targeting Systems, San Diego, USA, HUM-ZAP; cat. # IT-22) was added. Anti-GPNMB MAbs 2.10.2, 2.22.1, 1.15.1 or isotype control mAb (pK16.3) were added to each well at a final concentration of 10 or 50 ng/mL. An anti-EGFR monoclonal antibody (MS-269-PABX, NeoMarkers, Fremont, Calif., USA) was used as a positive primary antibody control. Chemotherapy reagent 5-FU at 600 uM was used as a positive reagent control. On day 5, the cells were trypsinized, transferred to 6-well tissue culture plates and incubated at 37° C. Plates were examined daily and between 8-10 days, all plates were Giemsa stained and colonies were counted.

[3] = test system: SK-MEL-2 melanoma xenografts; assay: Human SK-MEL-2 melanoma xenograft in athymic mice; type: in vivo
Description: (§1) Test Animals: Five- to 6-week old athymic mice (CD-1 nu/nu females), used for human tumor xenografts, were obtained from Harlan Laboratories (Indianapolis, Ind.). Animals were housed in specific pathogen-free conditions, according to the guidelines of the Association for Assessment and Accreditation of Laboratory Animal Care International (AAALAC International). Test animals were provided pelleted food and water ad libitum and kept in a room with conditioned ventilation (HVAC), temperature (22°±2° C.), relative humidity (55%±15%), and photoperiod (12 hr). All studies were carried out with approved institutional animal care and use protocols.
(§2) Human Melanoma Xenograft Models. The tumor inhibitory activity of the CR011-MMAE immunoconjugate was measured in an anti-tumor xenograft model using athymic mice, according to published methods (see Geran et al., Cancer Chemother. Rep. 3:1-104 (1972)). […] When tumors became established (10-20 days), the animals were pair-matched into groups (n=6 mice/group), and treatment was administered by intravenous injection (tail vein).
(§3) The SK-MEL-2 human melanoma (ATCC #HTB-68) was derived from a metastatic site (skin of thigh) of a person with malignant melanoma, and the SK-MEL-5 human melanoma (ATCC #HTB-70) was derived from a metastatic site (axillary lymph node) of a person with malignant melanoma (see Fogh et al., J. Natl. Cancer Inst. 59: 221-226 (1977)). Both cell lines were obtained from the American Type Culture Collection.
(§4) The effects of treatment were monitored by repetitive tumor measurements across 2 diameters with Vernier calipers; tumor size (in mg) was calculated using a standard formula, (W^2×L)/2, assuming a specific gravity of 1.0. Tumor size and body weights were assessed twice weekly. Mice were examined daily, however, and moribund animals were humanely euthanized if clinical indications of excessive pain or distress were noted (i.e., prostration, hunched posture, paralysis/paresis, distended abdomen, ulcerations, abscesses, seizures, and/or hemorrhages). Animals with tumors exceeding 2,000 mg were removed from the study and euthanized humanely.
No apparent or statistically significant anti-tumor effects were observed. […] In preliminary studies, tumor regression was complete and was not followed by regrowth of the tumor despite lengthy observation periods (up to 200 days).

[4] = test system: SK-MEL-5 melanoma xenografts; assay: Human SK-MEL-5 melanoma xenograft in athymic mice; type: in vivo
Description: as §1, §2, §3, §4
Soon after the commencement of treatment with paclitaxel, however, significant tumor growth inhibition was observed (P≦0.039) at day 3 after treatment began, and this anti-tumor effect continued, producing 100% growth inhibition (stasis). The responses of SK-MEL-5-bearing test animals to vinblastine and paclitaxel were short-lived. After cessation of treatment at the maximally tolerated doses, tumors resumed rapid, progressive growth.

[5] = test system: SK-Mel-2 cells; assay: ADCC assay with human PBMC (DELFIA EuTDA cytotoxicity); type: cell-based; settings: human PBMC 30 to 100 fold; 2, 5, 10 μg/200 μl
Description: We next examined whether the CR0111gG1 mAb could induce ADCC in SK-MEL-2 cells in culture in the presence of human PBMC. Human PBMC were isolated from whole blood using a Ficoll-Plaque. Briefly, in a 50 mL tube, 15 mL of PBS was added to 20 mL of whole blood which was underlayed with 10 mL Ficoll-Plaque and the tube was centrifuged at 2000 RPM. Mononuclear cells were collected from the interface and washed 3 times with PBS. The ADCC assay was carried out in a 96 well plate using a fluorescence assay for cytolysis from Perkin-Elmer (DELFIA EuTDA Cytotoxic assay). The procedure is based on loading target cells with a fluorescence enhancing ligand (BATDA, bis (acetoxymethyl) terpyridine—dicarboxylate). The hydrophic ligand penetrates the membrane quickly. Within the cell the esterbonds are hydrolyzed to form a hydrophilic ligand (TDA, terpyridine—dicarboxylic acid) which can no longer pass through the membrane. After cytolysis the ligand is released and introduced to the Europium solution. The europium and the ligand form a highly fluorescent and stable chelate (EuTDA). Fluorescence intensity are recorded using excitation and emission wavelengths as λex=340 nm and λem=613 nm, respectively.

[6] = test system: SK-Mel-2 cells; assay: Flow cytometry of CR011 binding to cell surface CG56972/GPNMB; set-up: species or system human; settings: SK-MEL-2
Description: (§5) Flow Cytometry: Quantitative analysis of GPNMB expression on the cell surface of cell lines was determined by flow cytometry. […] Cells were fixed in 1% paraformaldehyde/PBS and examined on a Becton Dickinson FACSCalibur flow cytometer. Data analysis was performed with Becton Dickinson Cell Quest software version 3.3 and the geometric mean fluorescence intensity ratio (GMR) was determined for each cell type.
as §5, with “CG56972” for “GPNMB”, “the” for “the cell”, “cytometry (FACS).” for “cytometry.”

## 1.15: anti-GPNMB antibody 1.15 of the binning tables; line of the lead mAb 1.15 / CR011
[1]; bin assignment of Table 8
  bin: VIII
[1]; bin assignment of Table 9, Cut-off = 90
  bin: VIII
[1]; paired with 1.1
  binning signal (Table 8): 91
[1]; paired with 1.11
  binning signal (Table 8): 10
  binning signal (Table 9): 19
[1]; paired with 1.12
  binning signal (Table 8): 15
  binning signal (Table 9): 21
[1]; paired with 1.13
  binning signal (Table 8): 13
  binning signal (Table 9): 5
[1]; paired with 1.15
  binning signal (Table 8): 0
  binning signal (Table 9): 0
[1]; paired with 1.2
  binning signal (Table 8): 79
  binning signal (Table 9): 90
[1]; paired with 1.3
  binning signal (Table 8): 71
  binning signal (Table 9): 51
[1]; paired with 1.5
  binning signal (Table 8): 15
  binning signal (Table 9): −9
[1]; paired with 1.7
  binning signal (Table 8): 21
  binning signal (Table 9): 17
[1]; paired with 1.8
  binning signal (Table 8): 8
  binning signal (Table 9): 12
[1]; paired with 1.9
  binning signal (Table 8): 12
  binning signal (Table 9): 19
[1]; paired with BB
  binning signal (Table 8): −19
  binning signal (Table 9): 59
[1]; paired with xV5
  binning signal (Table 8): 89

## O=c1[nH]cc(F)c(=O)[nH]1 [Mab 5-FU, 5-FU]
[2]
  killing of cells: complete killing

## CC[C@H](C)[C@@H]([C@@H](CC(=O)N1CCC[C@H]1[C@H](OC)[C@@H](C)C(=O)N[C@H](C)[C@@H](O)c1ccccc1)OC)N(C)C(=O)[C@@H](NC(=O)[C@@H](NC)C(C)C)C(C)C [free monomethylauristatin E, monomethylauristatin E, reference compound] (H-[NMeV]V[Dil][Dolaproine]-X1)
[3]; CR011-ONC-1, CR011-vcMMAE 5 mg/kg/treatment i.v. q4d x4, components at doses identical to those in the immunoconjugate
  tumor response: lack of responses; also recorded: lack of tumor growth inhibition

## CC(=O)O[C@H]1C(=O)[C@@]2(C)[C@H]([C@H](OC(=O)c3ccccc3)[C@]3(O)C[C@H](OC(=O)[C@H](O)[C@@H](NC(=O)c4ccccc4)c4ccccc4)C(C)=C1C3(C)C)[C@]1(OC(C)=O)CO[C@@H]1C[C@@H]2O [paclitaxel, reference compound]
[4]; paclitaxel group
  long-term, tumor-free survivors: One long-term, tumor-free survivor

## CC[C@]1(O)C[C@@H]2CN(CCc3c([nH]c4ccccc34)[C@@](C(=O)OC)(c3cc4c(cc3OC)N(C)[C@H]3[C@@](O)(C(=O)OC)[C@H](OC(C)=O)[C@]5(CC)C=CCN6CC[C@]43[C@@H]65)C2)C1 [vinblastine, vinblastine sulfate, reference compound]
[4]; CR011-ONC-3, i.v., vs saline and PBS control groups
  anti-tumor effect: noticeable, but not significant tumor growth inhibition
[3]; Study N-386, i.v., CR011-vcMMAE 20, 10, 5 or 2.5 mg/kg q4d x4, vinblastine […] q4d x4
  anti-tumor effect: very slight, but not significant, anti-tumor effect

## CR011 IgG1: CR011 mAb 1.15.1 switched to IgG1 constant region; heavy chain SEQ ID NO: 395
[5]
  ADCC / cytolysis of SK-MEL-2 cells: mediated ADCC; also recorded: caused cytolysis of SK-MEL-2 cells in a dose dependent manner
[6]
  FACS shifts compared to isotype control mAbs: comparable FACS shifts

Source: US8846873B2, “Antibodies directed to GPNMB and uses thereof” (Celldex Therapeutics, Inc., priority 2004, dated 2014)
